Laboratory results: US20140193432A1 (LIVTECH, published 2014)
Positions count from the first letter of the chain named. Names may count otherwise.

T1: recombinant protein of the hDlk-1 extracellular region (hDlk-1-His) (human, UniProt P80370 24-303)
T1 construct: not shown: His tag
T1 sequence: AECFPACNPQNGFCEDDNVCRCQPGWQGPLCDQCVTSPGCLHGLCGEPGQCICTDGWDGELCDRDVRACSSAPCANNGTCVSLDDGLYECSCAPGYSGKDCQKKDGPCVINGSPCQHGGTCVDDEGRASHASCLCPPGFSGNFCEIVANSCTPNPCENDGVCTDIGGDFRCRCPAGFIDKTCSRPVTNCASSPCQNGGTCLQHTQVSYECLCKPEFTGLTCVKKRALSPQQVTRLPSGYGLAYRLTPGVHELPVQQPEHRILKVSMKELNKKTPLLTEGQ

B1: humanized BA-1-3D IgG1/κ antibody (HuBA-1-3D-1) (antibody, V domains shown)
VH: QVQLVQSGAEVKKPGASVKVSCKASGYTFTDYAMHWVRQAPGQGLEWIGVISTYYGNTNYNQKFKGKATMTVDTSTSTAYMELRSLRSDDTAVYYCARGGLREYYYAMDYWGQGTMVTVSS
VL: DIVMTQSPDSLAVSLGERATINCKSSQSLLNSSNQKNYLAWYQQKPGQPPKLLVYFASTRESGVPDRFSGSGSGTDFTLTISSLQAEDVAVYYCQQHYSTPPTFGQGTKLEIKR
B2: HuBA-1-3D-1-A24G/T73K (antibody, human IgG1, kappa, V domains shown)
VH: B1 VH with A24G, T74K
VL: B1 VL
notes: human IgG1/κ; also called A24G/T73K mutant; HuBA-1-3D-A24G/T73K
B3: humanized BA-1-3D IgG1/κ antibody (HuBA-1-3D-2) (antibody, V domains shown)
VH: B1 VH with K67R
VL: B1 VL
B4: mouse-human chimeric BA-1-3D IgG1/κ antibody (ChBA-1-3D) (antibody, V domains shown)
VH: QVQLQQSGPELVRPGVSVKISCKGSGYTFTDYAMHWVKQSHAKSLEWIGVISTYYGNTNYNQKFKGKATMTVDKSSSTAYMELARLTSEDSAIYYCARGGLREYYYAMDYWGQGTSVTVSS
VL: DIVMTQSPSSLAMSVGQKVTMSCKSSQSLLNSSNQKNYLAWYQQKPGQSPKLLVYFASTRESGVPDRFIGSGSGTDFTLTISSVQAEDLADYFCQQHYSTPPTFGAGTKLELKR

Legend:
[1] = target: T1, recombinant protein of the hDlk-1 …; experiment: ELISA second format: hDlk-1-His coated at 0.5 µg/ml, antibody titrated from 5 µg/ml
Method: As a second format of ELISA, hDlk-1-His, which had been diluted with PBS to a concentration of 0.5 μg/ml, was added in an amount of 100 μl/well to a 96-well plate, followed by coating at 4° C. overnight. The plate was washed with a washing buffer, and it was then blocked with a blocking buffer. Thereafter, the plate was washed with a washing buffer again. […] Thereafter, a color reaction was carried out by the same method as described above.

[2] = target: T1, recombinant protein of the hDlk-1 …; experiment: ELISA third format: hDlk-1-His coated at 0.05 µg/ml, purified antibodies
Method: As a third format of ELISA, hDlk-1-His to be coated on a 96-well plate was diluted to a concentration of 1/10, and 0.05 μg/ml hDlk-1-His was then added in an amount of 100 μl/well to the 96-well plate, followed by coating at 4° C. overnight, so as to produce an ELISA plate coated with a low concentration of hDlk-1-His.

| Binder | EC50 [1] | EC50 [2] |
| --- | --- | --- |
| B1 | 0.148 µg/mL | – |
| B2 | – | 0.0355 µg/mL |
| B3 | 0.154 µg/mL | – |
| B4 | 0.116 µg/mL | 0.0254 µg/mL |
